Source: paper PMC7060239, “Two distinct modes of DNMT1 recruitment ensure stable maintenance DNA methylation” (Nature Communications, 2020)

Target: T1, PHD finger of human UHRF1 (residues 299–366) (human, UniProt Q96T88 299-366)
T1 construct: UHRF1, human, PHD finger, residues 299–366; also called hPHD; UHRF1 PHD finger; source: recombinant, purified (glutathione Sepharose 4B, HiTrap Q HP, Superdex75); not shown: GST, N-terminal, cleaved; SUMO-1, N-terminal, cleaved
T1 sequence (looked up): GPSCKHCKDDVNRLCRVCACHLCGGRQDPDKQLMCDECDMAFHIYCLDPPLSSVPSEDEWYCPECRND
Assay: ITC; hPHD and PAF15_(2-11) or H3 peptides; VP-ITC; 10 mM HEPES-NaOH (pH 7.5), 150 mM NaCl, 0.25 mM TCEP; one-site model
Details: both partners purified

B1: N-terminal histone H3 peptide (peptide)
chain: ARTKQTARKST
modifications: Unmodified free N-terminus assumed (initiator Met removed). Peptide limits are not printed in the supplied text (ITC in Supplementary Fig. 2d). Mature H3 residues 1-11 taken by convention from UHRF1 …
Kd: 1500 ± 100 nM

B2: human PAF15 (residues 2–11) peptide (peptide, UniProt Q15004 2-11, looked up)
peptide: VRTKADSVPG
notes: PCNA-associated factor 15 (PAF15), human, residues 2–11; begins with 2VRTK5; also called hPAF15_(2-11); PAF15_(2-11); source: synthetic peptide (Toray Research Center)
Kd: 2200 ± 300 nM

B3: hPAF15_(2-11)-K5A peptide (peptide, UniProt Q15004 2-11, looked up)
peptide: VRTAADSVPG
notes: PCNA-associated factor 15 (PAF15), human, residues 2–11; also called PAF15 K5A
binding result: binds
